IC50 data for two molecules are collected here from US20100168033A1, “UNACYLATED GHRELIN AS THERAPEUTIC AGENT IN THE TREATMENT OF METABOLIC DISORDERS” (ALIZE PHARMA SAS, priority 2007, published 2010).

Assay [1] concerns the target UAG receptor on INS-1E pancreatic β cells (rat). Kind of assay: competition with [125I-Tyr4]-UAG on INS-1E β-cell membranes, mean±SEM of three experiments.
The target of assay [2] is UAG receptor on HIT-T15 pancreatic β cells (hamster). Kind of assay: competition with [125I-Tyr4]-UAG on HIT-T15 β-cell membranes, mean±SEM of three experiments.

No end group written: not given here.

Turning to GSSFLSPEHQRVQQRKESKKPPAKLQPR [unacylated ghrelin UAG (1-28)], the concentration for half-maximal inhibition (IC50) came to 2 nM in assay [1] and 2.6 nM in assay [2].
Turning to SPEHQRVQ (not fully specified) [UAG (6-13)], the IC50 is 2.4 nM in assay [1] and 3.8 nM in assay [2].

In general, IC50 refers to the concentration needed to halve the response being measured. Low values mean inhibition by little substance, high ones a need for much substance.
